Laboratory results published in the supplement of paper PMC12338614.
± gives the uncertainty stated by the source.

B1: library; numbered along this chain (parent)
chain: MEVVDPQQLGMFTEGELMSVGMDTFIHRIDSTEVIYQPRRKRAKLIGKYLMGDLLGEGSYGKVKEVLDSETLCRRAVKILKKKKLRRIPNGEANVKKEIQLLRRLRHKNVIQLVDVLYNEEKQKMYMVMEYCVCGMQEMLDSVPEKRFPVCQAHGYFCQLIDGLEYLHSQGIVHKDIKPGNLLLTTGGTLKISDLGVAEALHPFAADDTCRTSQGSPAFQPPEIANGLDTFSGFKVDIWSAGVTLYNITTGLYPFEGDNIYKLFENIGKGSYAIPGDCGPPLSDLLKGMLEYEPAKRFSIRQIRQHSWFRKKHPPAEAPVPIPPSPDTKDRWRSMTVVPYLEDLHGADEDEDLFDIEDDIIYTQDFTVPGQVPEEEASHNGQRRGLPKAVCMNGTEAAQLSTKSRAEGRAPNPARKACSASSKIRRLSACKQQ

Variants of: B1
Assay: STK11 functional score (HeLa growth suppression), rescaled enrichment; synonymous median = 1, nonsense median = 0 (normalised score)
Conditions: with HeLa; variant type: missense
How it was run: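 The functional score takes the post/pre-selection log ratio, corrects it to wild type, rescales it to synonymous and nonsense medians, and merges it over codons and replicate transfections, with error from bootstrapping. Counts came from tiled gDNA amplicons sequenced on NextSeq (~2 million reads per tile). The libraries were POPCode codon-randomised, codon-optimised STK11 integrated by Bxb1 at an AAVS1 landing pad in HeLa, three regions with three transfections each.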

MEVVDPQQLGMFTEGELMSVGMDTFIHRIDSTEVIYQPRRKRAKLIGKYLMGDLLGEGSYGKVKEVLDSETLCRRAVKILKKKKLRRIPNGEANVKKEIQLLRRLRHKNVIQLVDVLYNEEKQKMYMVMEYCVCGMQEMLDSVPEKRFPVCQAHGYFCQLIDGLEYLHSQGIVHKDIKPGNLLLTTGGTLKISDLGVAEALHPFAADDTCRTSQGSPAFQPPEIANGLDTFSGFKVDIWSAGVTLYNITTGLYPFEGDNIYKLFENIGKGSYAIPGDCGPPLSDLLKGMLEYEPAKRFSIRQIRQHSWFRKKHPPAEAPVPIPPSPDTKDRWRSMTVVPYLEDLHGADEDEDLFDIEDDIIYTQDFTVPGQVPEEEASHNGQRRGLPKAVCMNGTEAAQLSTKSRAEGRAPNPARKNCSASSKIRRLSACKQQ [A417N] and MEVVDPQQLGMFTEGELMSVGMDTFIHRIDSTEVIYQPRRKRAKLIGKYLMGDLLGEGSYGKVKEVLDSETLCRRAVKILKKKKLRRIPNGEANVKKEIQLLRRLRHKNVIQLVDVLYNEEKQKMYMVMEYCVCGMQEMLDSVPEKRFPVCQAHGYFCQLIDGLEYLHSQGIVHKDIKPGNLLLTTGGTLKISDLGVAEALHPFAADDTCRTSQGSPAFQPPEIANGLDTFSGFKVDIWSAGVTLYNITTGLYPFEGDNIYKLFENIGKGSYAIPGDCGPPLSDLLKGMLEYEPAKRFSIRQIRQHSWFRKKHPPAEAPVPIPPSPDTKDRWRSMTVVPYLEDLHGADEDEDLFDIEDDIIYTQDFTVPGQVPEEEASHNGQRRGLPKAVCMNGTEAAQLSTKSRAEGRAPNPARDACSASSKIRRLSACKQQ [K416D] are within error of each other in STK11 functional score: 1.55 ± 0.18 for the first, 1.61 ± 0.12 for the second.

Compared with MEVVDPQQLGMFTEGELMSVGMDTFIHRIDSTEVIYQPRRKRAKLIGKYLMGDLLGEGSYGKVKEVLDSETLCRRAVKILKKKKLRRIPNGEANVKKEIQLLRRLRHKNVIQLVDVLYNEEKQKMYMVMEYCVCGMQEMLDSVPEKRFPVCQAHGYFCQLIDGLEYLHSQGIVHKDIKPGNLLLTTGGTLKISDLGVAEALHPFAADDTCRTSQGSPAFQPPEIANGLDTFSGFKVDIWSAGVTLYNITTGLYPFEGDNIYKLFENIGKGSYAIPGDCGPPLSDLLKGMLEYEPAKRFSIRQIRQHSWFRKKHPPAEAPVPIPPSPDTKDRWRSMTVVPYLEDLHGADEDEDLFDIEDDIIYTQDFTVPGQVPEETASHNGQRRGLPKAVCMNGTEAAQLSTKSRAEGRAPNPARKACSASSKIRRLSACKQQ [E376T], MEVVDPQQLGMFTEGELMSVGMDTFIHRIDSTEVIYQPRRKRAKLIGKYLMGDLLGEGSYGKVKEVLDSETLCRRAVKILKKKKLRRIPNGEANVKKEIQLLRRLRHKNVIQLVDVLYNEEKQKMYMVMEYCVCGMQEMLDSVPEKRFPVCQAHGYFCQLIDGLEYLHSQGIVHKDIKPGNLLLTTGGTLKISDLGVAEALHPFAADDTCRTSQGSPAFQPPEIANGLDTFSGFKVDIWSAGVTLYNITTGLYPFEGDNIYKLFENIGKGSYAIPGDCGPPLSDLLKGMLEYEPAKRFSIRQIRQHSWFRKKHPPAEAPVPIPPSPDTKDRWRSMTVVPYLEDLHGADEDEDLFDIEDDIIYTQDFTVPGQVPEEEASHNGQRRGFPKAVCMNGTEAAQLSTKSRAEGRAPNPARKACSASSKIRRLSACKQQ [L386F] is lower in STK11 functional score: 1.55 ± 0.26 for the first, 0.706 ± 0.4 for the second.

MEVVDPQQLGMFTEGELMSVGMDTFIHRIDSTEVIYQPRRKRAKLIGKYLMGDLLGEGSYGKVKEVLDSETLCRRAVKILKKKKLRRIPNGEANVKKEIQLLRRLRHKNVIQLVDVLYNEEKQKMYMVMEYCVCGMQEMLDSVPEKRFPVCQAHGYFCQLIDGLEYLHSQGIVHKDIKPGNLLLTTGGTLKISDLGVAEALHPFAADDTCRTSQGSPAFQPPEIANGLDTFSGFKVDIWSAGVTLYNITTGLYPFEGDNIYKLFENIGKGSYAIPGDCGPPLSDLLNGMLEYEPAKRFSIRQIRQHSWFRKKHPPAEAPVPIPPSPDTKDRWRSMTVVPYLEDLHGADEDEDLFDIEDDIIYTQDFTVPGQVPEEEASHNGQRRGLPKAVCMNGTEAAQLSTKSRAEGRAPNPARKACSASSKIRRLSACKQQ [K287N] and MEVVDPQQLGMFTEGELMSVGMDTFIHRIDSTEVIYQPRRKRAKLIGKYLMGDLLGEGSYGKVKEVLDSETLCRRAVKILKKKKLRRIPNGEANVKKEIQLLRRLRHKNVIQLVDVLYNEEKQKMYMVMEYCVCGMQEMLDSVPEKRFPVCQAHGYFCQLIDGLEYLHSQGIVHKDIKPGNLLLTTGGTLKISDLGVAEALHPFAADDTCRTSQGSPAFQPPEIANGLDTFSGFKVDIWSAGVTLYNITTGLYPFEGDNIYKLFENIGKGSYAIWGDCGPPLSDLLKGMLEYEPAKRFSIRQIRQHSWFRKKHPPAEAPVPIPPSPDTKDRWRSMTVVPYLEDLHGADEDEDLFDIEDDIIYTQDFTVPGQVPEEEASHNGQRRGLPKAVCMNGTEAAQLSTKSRAEGRAPNPARKACSASSKIRRLSACKQQ [P275W] are within error of each other in STK11 functional score: 1.49 ± 0.57 for the first, 0.995 ± 0.1 for the second.

In the case of MEVVDPQQLGMFTEGELMSVGMDTFIHRIDSTEVIYQPRRKRAKLIGKYLMGDLLGEGSYGKVKEVLDSETLCRRAVKILKKKKLRRIPNGEANVKKEIQLLRRLRHKNVIQLVDVLYNEEKQKMYMVMEYCVCGMQEMLDSVPEKRFPVCQAHGYFCQLIDGLEYLHSQGIVHKDIKPGNLLLTTGGTLKISDLGVAEALHPFAADDTCRTSQGSPAFQPPEIANGLDTFSGFKVDIWSAGVTLYNITTGLYPFEGDNIYKLFENIGKGSYAIPGDCGPPLSDLLKGMLEYEPAKRFSIRQIRQHSWFRKKHPPAEAPVPIPPSPDTKDRWRSMTVVPYLEDLHGADEDEDLFDIEDDIIYAQDFTVPGQVPEEEASHNGQRRGLPKAVCMNGTEAAQLSTKSRAEGRAPNPARKACSASSKIRRLSACKQQ [T363A], the STK11 functional score is reported as 0.828 ± 0.21.
